Laboratory results from PMC6884552, “Glycogen branching enzyme controls cellular iron homeostasis via Iron Regulatory Protein 1 and mitoNEET” (Nature Communications, 2019).

Biological target: T1, Flag-tagged Drosophila Iron Regulatory Protein 1A (IRP1A), wild type (Drosophila, UniProt Q9VCV4 1-902)
T1 construct: Drosophila IRP1A, cDNA LD36161; also called wild type IRP1A; 3x Flag-tagged IRP1A; source: S2 cells, transfected, in lysate
T1 sequence (looked up): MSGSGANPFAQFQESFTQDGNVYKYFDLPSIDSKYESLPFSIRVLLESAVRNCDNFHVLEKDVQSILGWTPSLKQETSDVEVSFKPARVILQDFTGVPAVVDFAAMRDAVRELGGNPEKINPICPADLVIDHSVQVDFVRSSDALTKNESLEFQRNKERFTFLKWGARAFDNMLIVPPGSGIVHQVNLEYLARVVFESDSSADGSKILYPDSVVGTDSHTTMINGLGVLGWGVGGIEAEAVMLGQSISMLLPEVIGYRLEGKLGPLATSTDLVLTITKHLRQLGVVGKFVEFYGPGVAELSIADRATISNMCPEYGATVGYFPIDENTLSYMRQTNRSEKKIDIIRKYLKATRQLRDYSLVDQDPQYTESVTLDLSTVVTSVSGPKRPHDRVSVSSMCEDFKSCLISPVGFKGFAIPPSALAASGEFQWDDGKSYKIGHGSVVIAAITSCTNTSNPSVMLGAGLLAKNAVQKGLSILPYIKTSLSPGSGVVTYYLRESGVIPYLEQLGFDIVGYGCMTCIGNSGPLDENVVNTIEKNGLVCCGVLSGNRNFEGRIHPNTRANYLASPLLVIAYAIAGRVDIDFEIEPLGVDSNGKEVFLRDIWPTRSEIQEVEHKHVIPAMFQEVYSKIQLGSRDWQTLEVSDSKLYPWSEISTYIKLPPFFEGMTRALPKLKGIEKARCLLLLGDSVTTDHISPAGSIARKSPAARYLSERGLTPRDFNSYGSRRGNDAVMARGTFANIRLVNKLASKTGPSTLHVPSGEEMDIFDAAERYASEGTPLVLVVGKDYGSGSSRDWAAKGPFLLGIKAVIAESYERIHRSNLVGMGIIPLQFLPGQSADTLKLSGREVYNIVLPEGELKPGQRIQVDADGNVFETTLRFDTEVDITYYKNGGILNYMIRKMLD
Assay: co-IP; S2 cells, triple co-transfection of 3xFlag-IRP1A, 6xMyc-AGBE and 3xHA-Cisd2 from one plasmid; Flag-IRP1A as bait; co-precipitated Cisd2 quantified against the sample without AGBE; three biological replicates
Settings: partners not purified

B1: HA-tagged Drosophila Cisd2 (natural protein, UniProt Q9VAM6 1-133, looked up)
chain: MEPISHLVKSSLPNYLSSLPVPDSIGGWFKLSFKDWLALIPPTVVVAGLGYTAYLAYCPAARASCAAKNSGRCNNHIRKNEPKVVDMIDVEDIAEKAAFCRCWKTKNWPYCDGSHGEHNKQTGDNVGPIVIKK
notes: Drosophila Cisd2, cDNA RE49709; also called mitoNEET; Cisd2/mitoNEET; source: S2 cells, transfected, in lysate
fold change of co-immunoprecipitated Cisd2 with AGBE co-transfected against without AGBE: ~3 fold
